According to US20230357429A1 (JANUX THERAPEUTICS, published 2023):
Read-outs that look alike come from different tables or passages of the source. Where no end group is shown, it is not given here.

T1: Human TROP2 ECD (31-274 AA), biotinylated (human, UniProt P09758 31-274, biotinylated (site not stated))
T1 construct: also called tumor-associated calcium signal transducer 2; Human TROP2-biotin
T1 sequence: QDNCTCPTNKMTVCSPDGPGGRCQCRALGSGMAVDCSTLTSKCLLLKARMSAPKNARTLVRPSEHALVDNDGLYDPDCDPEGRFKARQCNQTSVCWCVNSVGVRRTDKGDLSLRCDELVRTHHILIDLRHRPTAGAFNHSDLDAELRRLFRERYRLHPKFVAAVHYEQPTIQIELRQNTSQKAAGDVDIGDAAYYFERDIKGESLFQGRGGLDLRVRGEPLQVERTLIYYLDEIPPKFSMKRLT


What was measured:
[1] = molecular target: T2, TBD-22 (HC D109A); assay: competition ELISA, peptide vs Fab binding to captured biotin-TROP2
T2 construct: Fab; also called HC D109A mutant

[2] = molecular target: T3, TBD-17 (HC S104A); assay: as above
T3 construct: Fab; also called HC S104A mutant

[3] = molecular target: T4, TBD-1 wt; assay: as above
T4 construct: Fab; the heavy chain entry is VH-CH1; also called wild-type anti-TROP2 Fab (hRS7); TROP2 Fab

[4] = molecular target: T5, TBD-6 (LC I93A); assay: as above
T5 construct: Fab; also called LC I93A mutant

[5] = molecular target: T6, TBD-21 (HC F108A); assay: as above
T6 construct: Fab; also called HC F108A mutant

[6] = molecular target: T7, TBD-11 (HC R98A); assay: as above
T7 construct: Fab; also called HC R98A mutant

[7] = molecular target: T2, TBD-22 (HC D109A); assay: as above; remark: listed apart in the source
[8] = molecular target: T3, TBD-17 (HC S104A); assay: as above; remark: listed apart in the source
[9] = molecular target: T4, TBD-1 wt; assay: as above; remark: listed apart in the source
[10] = molecular target: T5, TBD-6 (LC I93A); assay: as above; remark: listed apart in the source
[11] = molecular target: T6, TBD-21 (HC F108A); assay: as above; remark: listed apart in the source
[12] = molecular target: T7, TBD-11 (HC R98A); assay: as above; remark: listed apart in the source
[13] = molecular target: T1, Human TROP2 ECD (31-274 AA), …; assay: ELISA on immobilized TROP2

Row | Binder | IC50 [1] | IC50 [2] | IC50 [3] | IC50 [4] | IC50 [5] | IC50 [6] | IC50 [7] | IC50 [8] | IC50 [9] | IC50 [10] | IC50 [11] | IC50 [12] | EC50 [13]
1 | EDFCYWYQWPICSD (cysteine pairing not given here; also: biotinylated, site not given here) [Peptide-35] | 870 nM | 9400 nM | 4400 nM | 3200 nM | 19200 nM | 21900 nM | – | – | – | – | – | – | –
2 | VDFCGLYHWPICYQVD (cysteine pairing not given here; also: biotinylated, site not given here) [Peptide-39] | 140 nM | 1690 nM | 460 nM | 670 nM | 2230 nM | 1640 nM | – | – | – | – | – | – | –
3 | VDFCYQYGWPICSR (cysteine pairing not given here; also: biotinylated, site not given here) [Peptide-36] | 1720 nM | 14800 nM | 5110 nM | 3800 nM | 19900 nM | 19800 nM | – | – | – | – | – | – | –
4 | VDFCYLYSWPICTK (cysteine pairing not given here; also: biotinylated, site not given here) [Peptide-40] | 580 nM | 7260 nM | 3630 nM | 2280 nM | 10000 nM | 14600 nM | – | – | – | – | – | – | –
5 | PDFCYMYGWPICDS (cysteine pairing not given here; also: biotinylated, site not given here) [Peptide-32] | 330 nM | 9440 nM | 4940 nM | 3290 nM | 13200 nM | 9930 nM | – | – | – | – | – | – | –
6 | VDFCKIYSWPVCHQ (cysteine pairing not given here; also: biotinylated (site not given here)) [Peptide-25] | 290 nM | 3750 nM | 3030 nM | 1280 nM | 6730 nM | 18000 nM | 140 nM | 3040 nM | 2580 nM | 1030 nM | 6450 nM | 8100 nM | –
7 | VDFCALYHWPICYQ (cysteine pairing not given here; also: biotinylated, site not given here) [Peptide-43] | 50 nM | 560 nM | 300 nM | 440 nM | 690 nM | 770 nM | – | – | – | – | – | – | –
8 | PDFCYMYNWPVCVT (cysteine pairing not given here; also: biotinylated, site not given here) [Peptide-33] | 330 nM | 6010 nM | 5600 nM | 2160 nM | 15700 nM | 18000 nM | – | – | – | – | – | – | –
9 | PC-24 (bispecific antibody, anti-TROP2 D109A) light: GGVDFCGLYHWPICYQVGGGSGGLSGRSDAGSPLGLAGSGGSDIQLTQSPSSLSASVGDRVSITCKASQDVSIAVAWYQQKPGKAPKLLIYSASYRYTGVPDRFSGSGSGTDFTLTISSLQPEDFAVYYCQQHYITPLTFGAGTKVEIKRTVAAPSVFIFPPSDEQLKSGTASVVCLLNNFYPREAKVQWKVDNALQSGNSQESVTEQDSKDSTYSLSSTLTLSKADYEKHKVYACEVTHQGLSSPVTKSFNRGEC heavy: not shown | – | – | – | – | – | – | – | – | – | – | – | – | 87.5 nM
10 | PC-20 (bispecific antibody, anti-TROP2 D109A) light: GGVDFCALYHWPICYQGGGGSGGLSGRSDAGSPLGLAGSGGSDIQLTQSPSSLSASVGDRVSITCKASQDVSIAVAWYQQKPGKAPKLLIYSASYRYTGVPDRFSGSGSGTDFTLTISSLQPEDFAVYYCQQHYITPLTFGAGTKVEIKRTVAAPSVFIFPPSDEQLKSGTASVVCLLNNFYPREAKVQWKVDNALQSGNSQESVTEQDSKDSTYSLSSTLTLSKADYEKHKVYACEVTHQGLSSPVTKSFNRGEC heavy: not shown | – | – | – | – | – | – | – | – | – | – | – | – | 74.3 nM
11 | PC-22 (bispecific antibody, anti-TROP2 R98A) light: GGVDFCGLYHWPICYQVGGGSGGLSGRSDAGSPLGLAGSGGSDIQLTQSPSSLSASVGDRVSITCKASQDVSIAVAWYQQKPGKAPKLLIYSASYRYTGVPDRFSGSGSGTDFTLTISSLQPEDFAVYYCQQHYITPLTFGAGTKVEIKRTVAAPSVFIFPPSDEQLKSGTASVVCLLNNFYPREAKVQWKVDNALQSGNSQESVTEQDSKDSTYSLSSTLTLSKADYEKHKVYACEVTHQGLSSPVTKSFNRGEC heavy: not shown | – | – | – | – | – | – | – | – | – | – | – | – | 142 nM

More lines, now with the values ahead:

Row | IC50 [1] | IC50 [2] | IC50 [3] | IC50 [4] | IC50 [5] | IC50 [6] | IC50 [7] | IC50 [8] | IC50 [9] | IC50 [10] | IC50 [11] | IC50 [12] | EC50 [13] | Binder
12 | 170 nM | 2030 nM | 1630 nM | 520 nM | 3540 nM | 4420 nM | – | – | – | – | – | – | – | VDFCSIYHWPVCYV (cysteine pairing not given here; also: biotinylated, site not given here) [Peptide-38]
13 | 110 nM | 1550 nM | 640 nM | 580 nM | 1500 nM | 1510 nM | – | – | – | – | – | – | – | VDFCGLYHWPICYQVY (cysteine pairing not given here; also: biotinylated, site not given here) [Peptide-41]
14 | 120 nM | 1480 nM | 430 nM | 530 nM | 2000 nM | 2720 nM | 90 nM | 1010 nM | 340 nM | 370 nM | 2640 nM | 1480 nM | – | IDFCMLYNWPICAG (cysteine pairing not given here; also: biotinylated, site not given here) [Peptide-3]
15 | 60 nM | 590 nM | 300 nM | 220 nM | 940 nM | 1210 nM | – | – | – | – | – | – | – | IDFCAMYHWPICDT (cysteine pairing not given here; also: biotinylated, site not given here) [Peptide-42]
16 | 80 nM | 1420 nM | 1470 nM | 550 nM | 3010 nM | 4870 nM | – | – | – | – | – | – | – | IDFCAVYKWPVCQV (cysteine pairing not given here; also: biotinylated, site not given here) [Peptide-62]
17 | 370 nM | 4080 nM | 6280 nM | 2600 nM | 15500 nM | 16600 nM | – | – | – | – | – | – | – | VDFCYLYNWPVCSK (cysteine pairing not given here; also: biotinylated, site not given here) [Peptide-37]
18 | – | – | – | – | – | – | – | – | – | – | – | – | 69.8 nM | PC-16 (bispecific antibody, anti-TROP2 D109A) light: GGIDFCAIYQWPVCRSGGGGSGGLSGRSDAGSPLGLAGSGGSDIQLTQSPSSLSASVGDRVSITCKASQDVSIAVAWYQQKPGKAPKLLIYSASYRYTGVPDRFSGSGSGTDFTLTISSLQPEDFAVYYCQQHYITPLTFGAGTKVEIKRTVAAPSVFIFPPSDEQLKSGTASVVCLLNNFYPREAKVQWKVDNALQSGNSQESVTEQDSKDSTYSLSSTLTLSKADYEKHKVYACEVTHQGLSSPVTKSFNRGEC heavy: not shown
19 | – | – | – | – | – | – | – | – | – | – | – | – | 54.3 nM | PC-26 (bispecific antibody, anti-TROP2 D109A) light: GGVDFCAIYSWPICKIGGGGSGGLSGRSDAGSPLGLAGSGGSDIQLTQSPSSLSASVGDRVSITCKASQDVSIAVAWYQQKPGKAPKLLIYSASYRYTGVPDRFSGSGSGTDFTLTISSLQPEDFAVYYCQQHYITPLTFGAGTKVEIKRTVAAPSVFIFPPSDEQLKSGTASVVCLLNNFYPREAKVQWKVDNALQSGNSQESVTEQDSKDSTYSLSSTLTLSKADYEKHKVYACEVTHQGLSSPVTKSFNRGEC heavy: not shown
